Results as given in a protein production outcome set (Wang et al. 2014).

Test: label from the status in PepcDB records
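Note: failed if final PepcDB status was selected cloned or expressed and not failed if soluble or beyond.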

Sequence	protein production
MWPFRKEQERGGWLIGWNPHGLLVIVVAVVHDPRVENATAALNKLKESEGDIRATAHRKQHKDVPSATSLLILGWMHSKQATLDKSEYADAWVRSQHSRAELWLELNEGPLLHQLYCCGSPVQPCHLHVLRSDPTVSYAVTSTAFSAVARHDRGDLVKLVEGKMQPICVEGANSTLEGVLLPSHMVHSAGPRTKMRRMVGSDPLTQDEEEKQEGAKQRTEDDRVSVGSSGSGEGSTESQSVRGSETPRFGGELHPRLDFPTSTDYGELSSLLRASAYGKILRELCENKVSNATDGTAATARLCAYWKNCGNRFTGFLTKILVVFHLVLKWPGNVSYTAALLEFRLRMVIHWLLLLRGDTRVCCLHPVLPHIQHNDPALRRFCVVDFLVRFAVDTICGMLLSLLLSHGSGLLVTKAVSWCRWLLYDLHMEYMDWFEGWPAGLKMNGDLSMTLSCIAKAVLEASWASVEDLSNVGLFYKLLIFVAPLGASCAFAFVADLCLIASLHLYLVFHSVSLPYRFARFMLRNLFLQFQGKKHNPLRHRTDTYDFPVEQTLVATVIFTIIVFLLPTLAVYHVYFALICIAVWLLQGALLVAAHLTLYLPLYPLFYWALYRRQWPGGVALTGPKVLSTPQHSRALNPFARGSLTVEFGVVSKPLELRVLLADFLLVAHVVGRLHPFDMIVAVFKVRRWERTNPGKCLVPPLPADIMPLTGMTLPKTAVA	failed
MWPVVALTLFVVTFGFVLGGLVVGGKVQARPVSFLLFSGLFLFSSFFGMLVSLFTTGWFPFRLLDVVIVALCFVFIVSCFMRFHPTFGFFQFDGRANMILFAVISFFLGLQLGMLGWRTFFILFLALVFTAGLFAGGVFQVRAVMKFYSRQPSFHFLPLIWLLFATVLKLL	failed
MWSCPTLNAPRAAQKWLPVRATPHLCVLHMSRLMLSSTLIDELSYVRKDQLETSALFELIAHRYERHSIAITANEPFSGWSDAMTVAAIDRLVHHSTIIEMNGESYRKRAAVARGASTQNANDEPEDPPNRSSLEHHHHHH	failed
MWSGVVTERKISRRLRLIKRVREEYVRDDVSCGFECCGGPCRASGKASVFAIPDANVVSRYRALLKSDYVAAIICQSVLSELSKNDERGLRDVARERGYPVFCDSFCRSTHGKGLEGVLEFYRAHLPQHNFTILDIGNIGEYGRYVSDDIRDLLENVDEKEATEYEEYVENLDILYGRKGLYRGTLEVSMYNCYSGFVVDGDVKVLVVGKKNMNRALSGDEVYVEVVDEYDEDGILLDNEEGTQETRKGAAGEGVFGKVVGIHRRKCRAVIGSISPRTVHGDGAQNVLVIPIDRRIPAIRIRTSQAEELMNKRLCVEIDGWERTSNYPSGHYYRRLGTLGDRNAEMEAVLVANGITYYNKNWAEILRVPWMNEDIFGMEKAYNEVREGTREDFRELSIVSIDPPDCEDIDDALHCRLLPNGNWEVGVHIADVTYYVTKGSEIDKIAADRGTTIYLPEWRIDMLPPALSTDLCSLVAGKDRAAFSVVWEMSSDVRVVRTHFCRSLIRSKRSFSYNEAYDAVQGLVDAGDEVSRSLRMLLEISRVLRSRRFAKGSLDLSTRQLVFREGGFEMKEYFPTNFLVEEFMVLANISVASFIYHHHPDSSLLRKHPPPSVLDIGLDIDTSSPRALSESLEKMEGVRKDLAKRMLIRSMNQAVYVVSGETPSLHHYGLATPIYTHFTSPIRRYADIIVHRILNHILQTAPTKEAQINKLGIVTFRARKRTDGESMDEVFVDEDMCRNMNSRHRAARKAAWECDKLTVYMALRNEEPVVRGFVTNIKPNGIVVYVPEYSLEEVVVSEGCFEMFQEVWVKIRRDDEKFFLRRRFTFEIVGLSSPC	failed
MWYDYRFCAYPDRTGVAAEAERHIDIHRQAYNHTRYEYNALDTDEDNIGSAYQHQKRLTEWKDEWSVFSEVHSKALQKTVERFYDNLSNLSEKKQNGHKVGWLKWKPPREYQSVTYSQSGFELKNTSGRTATLWLSKIGDIPIRYHRPIPDNATIKEVTLKKETTGEWYVTFGLEVEDTTLPEKPDVDDLDAEDCVGIDLGITNYIYTSDGDSVDWLNLSDEYERLRREQRNLSRKEHRSNNWKKQRREVAKVKRRIKRKVEDFQHKLTTWLVKTYDAVFVEDLNVSGMLQQRGNARNKQDAAWRGFINMLEYKGDLYGTHVVQVNPAGTTKECAECGVETEKPLWVREHSCPSCGFEADRDANASYNVLSRGLRELGLGQAEVTPVETATAVETDGGRSSSVPASRVIETGSLGVVRKTESSVMTRDEVPRTT	failed
MWYSTVRNPSIALIKQGYHILAEYNLVKEELKNIYAIPSYACGLHWFGVIFVHSGIYAGSVFRFSILLPENFPADISLPTVVFSTEVLHPHICPQNKTLDLAHFLNEWRKDEHHIWHVLRYIQAIFADPEGSICTGQSSSGDLVIMDEVRNMNALNMLAKSRPEYIKRVQEQAILSRNLIYDRPPTEDPHYIIVEPYCAERHLKFMDQLKSPCWKEATSMDCSQPSEYLGHIDSSRQLDEEEANQVEKLHRGRIPEHQREESEVSL	failed
MYAPERQQEILRLARDGGRVDVVSLAEEFQVTAETIRRDLKALDRAGLLRRVHGGAIPAGRLDFEPDLAERESTAADEKDRIARAALAELPAEGTLILDAGSTVARMAAAIPPDASLTVVTHSLPIAARLADHPGIQLHIVGGRVRHRTRAAVDAWALRAYGEIRADVAVVAANGFSVEHGLTTPDLAEAAVKRAALTAARRVVLLADSSKYAQEHFARFGALGDVDLLITDQGLTPEDAGDIERAGTEVVRA	failed
MYEIPWSKPVNINMLDGRCRTVVGPLDAMHCLQSEWPVRDGAYYGCAIRACNAALKRRKRPEDARAAFIAALREAFLTVVPMQEEGHGPRPLE	not failed
MYFVDRSKIEKTLGFFEHQLALFDSQTDWQSEIGELALQRIGHLLIECILDTGNDMIDGFIMRDPGSYDDIMDILVDEKVVTEKEGDELKKLIAYRKTLVQQYLLADSGELYRLIKAHQTALQDFPKRIRSYLETELGPVSAFK	not failed
MYGGIYVNNGYSPMSSNQQNVSVEHDIIMRGRRVIDITGVKQVESFDSEEFLLETVMGFLTIRGQNLQMKNLDVEKGVVSIKGKVHEMLYIDENQGEKTKGFFSKLFKLEHHHHHH	not failed
MYIHLGDDFVVSTREIVAIFDYKAKTSPIVEEFLSKQKQRIVSSNSTPKSIVVTLQSIYFSPLASGTLKKRAQSKPEIDSLEHHHHHH	failed
MYIICSQFSASEPVNPYALLGAAIVSELLGTTSLKLSEGFSRPVPSLGVVVGYGLAFYLVSLTLEDLPIGVVYGTWAALGIVGVAAIGIVVFDEPIDLPGAVGILLIIIGVYCVNVLSEMSAH	failed
MYKILEKKEIAMRNTWYKVYAPHVAKKVQPGQFVIVRAFPNGERIPLTPVMWDREEGWIVLIVFTRGKTTMRMAVELKEGDSLLNVAGPLGTPVPMEKFGKILAIGAYTGIVEVYPIAKAWQEIGNDVTTLHVTFEPMVILKEELEKAVTRHIVEPVPLNPNQDFLANMKNVSQRLKEKVRELLESEDWDLVFMVGPVGDQKQVFEVVKEYGVPMKVDLHPIMVDGTGMCGACRVTVGGEVKFACVDGPEFDAYQVDWDELIHRVGFYAKLEKLALEKYMEELKAKGVILEHHHHHH	failed
MYKNILILGRGIGQVMFQNNALSGGLMLLGIAFNSWQLAVLSVLGTVVSTLTASLSGYDKEDIRNGLYGFNGTLVGIAIGVFMEINVTSILLLISGSAFSTWVARCFRYQNRVSGLTAPFIFVVWLLLVGCHYLYPSLLLSSSLEKPELTMDIFRSFCLNIGQVMFQGNILSGLFFLLGILINSRMNALYTLTGAILPLFMILYPHTDLAAWNLGLLGYNGVLCAIALGDKTGIGVVKAIFSIILSIVLQLTGMHMGIVTLTAPFVFSVWITGGLFSVFRSKS	failed
MYLEKINSPEDVKKLSIDEMKDLSTEIREVLLKKLSEHGGHIGPNLGIVELTIALHYVFNSPKDKIVYDVSHQSYIHKMLTGRKEAFINSEKYDEVSGYSNPEESEHDFFNIGHTSTSISLACGLAKARDVKDETDNVIAIIGDGSLSGGEAYEGLNNAAETGTNMIIIVNDNDMSIAENHGGLYKNLKELRDTEGKSECNFFKAMGLDYHYVKDGHDLEQLIGVFNKVKDTKQPVVVHIHTVKGKGFKFAEKNKEQWHWGMPFVLETGASKVSMGSAENYGNLTGEYLLDYMKRDPKVVAITSGTPAVFGFWKERRNEAGRQFVDVGIAEEHAVALASGIAANGGNPVYGVYSTFLQRTYDQLSQDLCINNNPAVLLVFAASVYGMNDVTHLGLYDIGMMSNIPNMVYLAPTCKEEYFAMLKWAMIQKDHPVAIRVPAMGVIESGVVDNTDYSKLNKYEVTKAGKDVAVIALGDFYQLGQSVTEKLSQENGINATLINPKYITGIDEELLEGLKKEHKLVITLEDGILDGGFGEKIARYYGASDMKVLNYGIKKELLDRYVPDELMKKNRLTDVQIVEDIMNIIK	failed
MYLKELSMMPGVSGDEGKVRDFIKSKIEGLVDNLYTDVLGNLIALKRGRDSSKKLLVSAHMDEVGFVVSKIEKDGKVSFLPVGGVDPRILPGKVVQVKNLKGVIGYRPIHLQRDEENTPPRFENLRIDFGFSSADEAKKYVSIGDYVSFVSDYIEKNGRAVGKAFDDRAGCSVLIDVLESGVSPAYDTYFVFTVQEETGLRGSAVVVEQLKPTCAIVVETTTAGDNPELEERKWATHLGDGPAITFYHRGYVIPKEIFQTIVDTAKNNDIPFQMKRRTAGGTDAGRYARTAYGVPAGVISTPARYIHSPNSIIDLNDYENTKKLIKVLVEEGKIVEVVS	not failed
MYLPTHFKQENQAELFDLIEHHPLGTLIVMHADGLEVNHIPFELDRLHLPAGILRGHIAKANPLASLLSEPQSAYVIFQAEQHYISPNWYPGKQEHHRVVPTWNYRVVHATGQLSVIEDQKYLRGVLARLTRQHEADQPAPWRLSDAPADFIEQQLEKIMAIEFNIESIIGKFKLSQN	failed
MYLPTHFKQENQAELFDLIEHHPLGTLIVMHADGLEVNHIPFELDRLHLPAGILRGHIAKANPLASLLSEPQSAYVIFQAEQHYISPNWYPGKQEHHRVVPTWNYRVVHATGQLSVIEDQKYLRGVLARLTRQHEADQPAPWRLSDAPADFIEQQLEKIMAIEFNIESIIGKFKLSQNRSQADVAGVIAALNELEPQIANSIHKFYPK	failed
MYLTCRFEESKSAEKAVVALEESTSGEPKTPTESHEKLRKVRSDQGSSTTSSNQENIGSSSVSFRNQVLQSTVTNQKQDSPIPVESNREKAASKEVEAGSQSTNEGIAGQSSSTEKPKEEESAKQRWSRSQREAALMKFRLKRKDRCFDKKHLKQIQDQTDSMEMYKNGLQVRYQSRKKLAEQRPRVKGQFVRTVNSDASTKS	failed
MYLTLTIAAMPAYNEAHVIAEVILGCKKYVDNVIVVDDGSSDNTAEVARSAGGYVVKHEVNKGYGAALKSCFKLAREFNADVMIIMDSDGQHNPDEIPRLLEPLKHGADLVIGSRFINGNGKNVPAYRKVGMKILDIATYLAGGILVTDSQSGFRAYGKKAIENVRFDGNNMSAGSEILLYIKDHNLKFTEVEIHCRYDLDQCSSQNPFLHGMEVAFQILKNMGFRRPLYYFTVPGILLIAAGLLIEIAFLHLVGSFGFGVISLIFLMILTGIFMVFTGVILHLVSKMISQIVPGQKGTESLNDGF	failed
MYLTREEERILAGEEGEARAKALEVIVKVGEAVGAERLIPIKHAHVSGASYMTIGDAGLRFLARLAESGARFSVPTTVNPVSYDVEEPGAIPMTRLSPRIVKAQSEILKALEAMGADLILTCTPYYTEVPRRVGLREGDSVAWGESSAVAYANSVLGIHTNREGGPLALMAGIAGRTYFYGAHDPEWRKPRVAYRLETPKVLDETEAGVLGEVIATQHRDEHPPLLDAPLGGEAALKEFSAAVGSAGSLAMVHITGVTPGDPGDMIEEVVTMDYGDLARRMEDLAPGFEPDILYVGCPHASIEELRRLYRALSKAGERAGRRTVVSISRSLYLQALREGLVEKLKGLGVRFVRDSCLIVSPFSSGARGVRVATNSYKAYFYLSKKGVEVGLAPIEALPKLVS	failed
